Patent US10513545B2, “Fusion polypeptide in which anti-inflammatory polypeptide and ferritin monomer fragment are bound and pharmaceutical composition for preventing and treating inflammatory diseases, containing same as active ingredient” (KYUNGPOOK NATIONAL UNIVERSITY INDUSTRY-ACADEMIC COOPERATION …, priority 2015, dated 2019)

Columns and labels:
PAR-1 = PAR-1 cleavage assay in transfected HUVECs (ALP activity); format: cell-based; settings: FIG. 13
Method: HUVECs at 90% confluence in 24-well plates were transiently transfected with pRc/RSV containing ALP-PAR-1-TF cDNA in antibiotic-free Opti-MEM medium using Lipofectamine (Invitrogen) according to the manufacturer's instruction. On the following day, cells were washed and incubated in serum-free medium for 5 h. Cells were then incubated for an additional hour with thrombin, TRAP, TFG, or TFMG. Conditioned medium was collected and centrifuged to remove cellular debris. Supernatant was collected, and ALP (alkaline phosphatase) activity was measured using EnzoLyte™ p-nitrophenyl phosphate alkaline phosphatase assay kit (AnaSpec, San Jose, Calif.) according to the manufacturer's instructions.

CLP-induced sepsis [1] = experiment: in vivo vascular permeability assay (Evans blue leakage); set-up: species or system mouse; settings: CLP-operated mice, intravenous, FIG. 20
Method: CLP-operated mice were injected with PC-Gla with TRAP, TFG, or TFMG intravenously. After 6 h, 1% Evans blue dye solution in normal saline was injected intravenously into each mouse. Thirty minutes later, the mice were sacrificed, and the peritoneal exudates were collected after being washed with normal saline (5 mL) and centrifuged at 200×g for 10 min. The absorbance of the supernatant was read at 650 nm. The vascular permeability was expressed in terms of dye (mg/mouse), which leaked into the peritoneal cavity according to a standard curve of Evans blue dye, as previously described.

HUVECs = experiment: HUVEC cell-binding assay with fluorescence-labeled molecules (in vitro); format: cell-based, human; settings: for degree of binding to HUVECs: FIG. 10, compared with PC-Gla; for in vitro binding to endothelial cells compared with PC-Gla: HUVEC, FIG. 12A
Method: PC-Gla, TFG, and TFMG were labeled with FNG-456 NHS ester for in vitro assays or FNI-675 NHS ester for in vivo assays at a molar ratio of 1:3. Briefly, each molecule (10 μM) was dissolved in PBS (1.5 mL), and FNG-456 NHS ester (30 μM) or FNI-675 NHS ester (30 μM) was dissolved in DMSO (0.2 mL). Each molecule and fluorescent dye was reacted at room temperature for 3 h. The reaction product was passed through a 0.2-μm filtering unit, and the unreacted dye was separated on a PD midiTrap™ G-25 (GE Healthcare, UK) that had been pre-equilibrated in PBS with 2 mM sodium azide. This process yielded more than 2.17 μM of each nanoparticle with more than 1.5 ratio of dye per protein.
A direct cell-binding assay was performed on HUVECs and in vivo using fluorescence labeled-PC-Gla, TFG, and TFMG. The assay was performed with PC-Gla, TFG, or TFMG treated on HUVECs, intravenously injected mice, and isolated mouse endothelial cells. The fluorescence value of the HUVECs or endothelial cells were measured with tightly bound PC-Gla, TFG, and TFMG, respectively. The concentrations of PC-Gla, TFG, and TFMG were measured by using the nanoparticle ratio of fluorescent dye per protein.

IL-6, IL-10, TNF-α = experiment: blood inflammatory cytokines (ELISA) in CLP-induced sepsis; format: in vivo, mouse; settings: for level of IL-6 / level of IL-10: FIG. 18A; for level of TNF-α: FIG. 18B
Method: (§1) To induce inflammation, male mice were anesthetized with 2% isoflurane (JW Pharmaceutical, Republic of Korea) in oxygen delivered via a small rodent gas anesthesia machine (RC2, Vetequip, Pleasanton, Calif.), first in a breathing chamber and then via a facemask. They were allowed to breathe spontaneously during this procedure. The CLP-induced inflammation model was prepared as previously described. In brief, a 2-cm midline incision was made to expose the cecum and adjoining intestine. The cecum was then tightly ligated with a 3.0-silk suture at 5.0 mm from the cecal tip and punctured once using a 22-gauge needle for the induction of high grade inflammation. It was then squeezed gently to extrude a small amount of feces from the perforation site and returned to the peritoneal cavity. The laparotomy site was then sutured with 4.0-silk. In sham control animals, the cecum was exposed but not ligated or punctured and then returned to the abdominal cavity. This protocol was approved by the Animal Care Committee at Kyungpook National University prior to the conduct of the study (IRP No, KNU 2012-13).
(§2) Fresh serum was used for assaying aspartate transaminase (AST), alanine transaminase (ALT), blood urea nitrogen (BUN), creatinine, and LDH using biochemical kits (Mybiosource). To determine the concentrations of IL-6, IL-10, and TNF-α, commercially available ELISA kits were used according to the manufacturer's protocol (R&D Systems). Values were measured using an ELISA plate reader (Tecan, Austria GmbH, Austria).

CLP-induced sepsis [2] = experiment: survival in animal model of CLP-induced sepsis; format: in vivo, mouse; settings: for survival rate: in comparison with PC-Gla and TRAP co-administration group, FIG. 14; for overall effectiveness in sepsis treatment: taken together, in comparison with PC-Gla and TRAP co-administered group
Method: Male C57BL/6 mice (6-7 weeks of age, 18-20 g) were purchased from Orient Biotech (Seongnam, Gyeonggi Province, Republic of Korea) and used after 12 days of acclimation. Five mice per cage were housed under the conditions of a controlled temperature (20-25° C.), humidity (40-45%), and 12:12 h day/night cycle, while being fed with a normal rodent pellet and water ad libitum. All animals were treated according to the Guidelines for the Care and Use of Laboratory Animals issued by Kyungpook National University.
as §1
All experiments were performed independently at least three times. Values are expressed as means±SEM. The statistical significance of differences between test groups was evaluated using SPSS for Windows, version 16.0 (SPSS, Chicago, Ill.). Statistical relevance was determined by one-way analysis of variance (ANOVA) and Tukey's post-test. P values less than 0.05 were considered to indicate a statistical significance. Survival analysis of CLP-induced sepsis was performed using Kaplan-Meier analysis.

CLP-induced sepsis [3] = experiment: serum organ injury markers (ALT, AST, creatinine, BUN, LDH) in CLP-induced sepsis; format: in vivo, mouse; settings: FIG. 17
Method: as §1, §2

B1: TFMG: as TFG with an MMP-2 cleavable linker (GPLGLAG) between ferritin fragment C-terminus and PC-Gla (apparently SEQ ID NO: 15) (protein)
chain: MGGTTFLLRNASGHMSSQIRQNYSTDVEAAVNSLVNLYLQASYTYLSLGFYFDRDDVALEGVSHFFRELAEEKREGYERLLKMQNQRGGRIFLQDIKKPAEDEWGKTPDAMKAAMALEKKLNQALLDLHALGSARTDPHLCDFLETHFLDEEVKLIKKMGDHLTNLHRLGGGSEFVDGGGSGTSGPLGLAGANSFLEELRHSSLERECIEEICDFEEAKEIFQNVDDTLAFWSKHVLEHHHHHH
modifications: Fusion polypeptide (2)
- PAR-1 cleavage activity (ability to activate PAR-1) (PAR-1): strong similarities
- in vivo vascular permeability (CLP-induced sepsis [1]): alleviated
- degree of binding to HUVECs (HUVECs): strong binding affinities which are equivalent to that of PC-Gla
- in vitro binding to endothelial cells compared with PC-Gla (HUVECs): bound more strongly to, and stayed longer on, endothelial cells than PC-Gla did
- level of IL-6 (IL-6, IL-10, TNF-α): mitigated
- level of IL-10 (IL-6, IL-10, TNF-α): mitigated
- level of TNF-α (IL-6, IL-10, TNF-α): mitigated
- survival rate (CLP-induced sepsis [2]): significantly improved
- overall effectiveness in sepsis treatment (CLP-induced sepsis [2]): more effective antiseptic than TFG
- toxicity indicator for general organs (LDH) (CLP-induced sepsis [3]): considerably improved
- toxicity indicators for kidneys (creatinine and BUN) (CLP-induced sepsis [3]): considerably improved
- toxicity indicators for liver (ALT and AST) (CLP-induced sepsis [3]): considerably improved

B2: TFG: fusion polypeptide: TRAP at N-terminus and PC-Gla at C-terminus of short ferritin monomer fragment, forms nanocage (apparently SEQ ID NO: 14) (protein)
chain: MGGTTFLLRNASGHMSSQIRQNYSTDVEAAVNSLVNLYLQASYTYLSLGFYFDRDDVALEGVSHFFRELAEEKREGYERLLKMQNQRGGRIFLQDIKKPAEDEWGKTPDAMKAAMALEKKLNQALLDLHALGSARTDPHLCDFLETHFLDEEVKLIKKMGDHLTNLHRLGGGSEFVDGGGSGTSANSFLEELRHSSLERECIEEICDFEEAKEIFQNVDDTLAFWSKHVLEHHHHHH
modifications: Fusion polypeptide (1)
- PAR-1 cleavage activity (ability to activate PAR-1) (PAR-1): strong similarities
- in vivo vascular permeability (CLP-induced sepsis [1]): alleviated
- degree of binding to HUVECs (HUVECs): strong binding affinities which are equivalent to that of PC-Gla
- in vitro binding to endothelial cells compared with PC-Gla (HUVECs): bound more strongly to, and stayed longer on, endothelial cells than PC-Gla did
- level of IL-6 (IL-6, IL-10, TNF-α): mitigated
- level of IL-10 (IL-6, IL-10, TNF-α): mitigated
- level of TNF-α (IL-6, IL-10, TNF-α): mitigated
- survival rate (CLP-induced sepsis [2]): significantly improved
- overall effectiveness in sepsis treatment (CLP-induced sepsis [2]): significantly effective
- toxicity indicator for general organs (LDH) (CLP-induced sepsis [3]): considerably improved
- toxicity indicators for kidneys (creatinine and BUN) (CLP-induced sepsis [3]): considerably improved
- toxicity indicators for liver (ALT and AST) (CLP-induced sepsis [3]): considerably improved
